Measured values published in patent publication US20090202520A1 (PROMEDIOR, published 2009).

B1: C-reactive protein (CRP) (ligand, human, UniProt P02741 19-224, looked up)
chain: QTDMSRKAFVFPKESDTSYVSLKAPLTKPLKAFTVCLHFYTELSSTRGYSIFSYATKRQDNEILIFWSKDIGYSFTVGGSEILFEVPEVTVAPVHICTSWESASGIVEFWVDGKPRVRKSLKKGYTVGAEASIILGQEQDSFGGNFEGSQSLVGDIGNVNMWDFVLSPDEINTIYLGGPFSPNVLNWRALKYEVQGEVFTKPQLWP
notes: In the SPR assay CRP was captured on PC-KLH immobilised on a CM5 chip; also called hCRP; PTX1

What was measured:
[1] = target: T1, soluble recombinant FcγRI (sFcγRI) (UniProt P12314 16-292); assay: SPR steady-state plot of Req against FcγRI concentration (early association phase data); CRP captured via PC-KLH on CM5 chip; vertical line marks the KD estimate
T1 construct: extracellular domain; also called FcγR1; not shown: C-terminal poly-histidine tail of 6-10 histidines
Procedure: (§1) Similar methods were used to evaluate binding interactions between CRP and sFcγRs, and details were the same except where stated here. Binding of CRP to Biacore CM5 chips was achieved through capture via PC-KLH (phosphocholine-keyhole limpet hemocyanin conjugate). Briefly, PC-KLH was immobilized onto a CM5 chip through amine coupling onto the chip surface activated with 1-ethyl-3-(3-dimethylaminopropyl)carbodiimide and N-hydroxysuccinimide. A negative control flow cell was prepared using the same amine coupling to immobilize human serum albumin to the same level as the PC-KLH. Binding of CRP to the PC moiety of PC-KLH immobilized on the CM5 chip was achieved by contacting the surface of the CM5 chip with the CRP in 10 mM Hepes, 150 mM NaCl, 0.5 mM CaCl₂, pH 7.4, to achieve the desired amount of bound CRP. We established that binding was specific for the PC moiety in PC-KLH, since no binding to KLH immobilized to the same level was evident when this was attempted on a different flow cell using the same conditions and the same 10 mM Hepes, 150 mM NaCl, 0.5 mM CaCl₂, pH 7.4, as running buffer. Binding of CRP to PC-KLH was stabilized by a very short immobilization using amine coupling. […]

[2] = target: B1; assay: SPR steady-state plot of Req against FcγRIIIB concentration (early association phase data); CRP captured via PC-KLH on CM5 chip; dotted vertical line marks the KD estimate, beyond the highest concentration tested (3e-6 M)
Procedure: as §1

[3] = target: T2, serum amyloid P (SAP) (human, UniProt P02743 20-223); assay: SPR (Biacore X100), SAP on CM5 chip, soluble receptor flowed, single cycle kinetics, KD = Kd/Ka
T2 construct: Pentamer of five non-covalently associated protomers; also called hSAP; human serum amyloid protein P
Text: (§2) Surface plasmon resonance technology detects and quantifies binding and dissociation events between two proteins through a change in mass at the surface of a chip that is detected as a change in surface plasmon resonance. For these studies we used a Biacore X100 instrument.
(§3) SAP was bound to the surface of the test flow cell of a chip and a soluble recombinant form of Fcγ receptor (sFcγR) was flowed across the surface of the chip, representing the contact or binding phase. Buffer was then flowed across the chip surface, representing the dissociation phase. Change in mass at the cell surface with respect to time, detected as a change in surface plasmon resonance units (RUs) with time, was represented by a graph called a sensorgram. Binding of SAP to the CM5 dextran surface of a Biacore CM5 chip was performed in the presence of 10 mM Hepes, 150 mM NaCl, 0.5 mM CaCl₂, pH 7.4 as running buffer. Binding of SAP was stabilized by a very short immobilization using amine coupling (Biacore reagents) which covalently linked a limited representation of amine-group-containing amino acids on SAP to groups on the chip surface activated with 1-ethyl-3-(3-dimethylaminopropyl)carbodiimide and N-hydroxysuccinimide. A negative control flow cell was prepared using the same amine coupling procedure to immobilize human serum albumin to the same level as SAP. […]

[4] = target: T2, serum amyloid P (SAP); assay: SPR (Biacore X100), SAP on CM5 chip, soluble receptor flowed
Text: as §2, §3

T2 sequence (P02743 20-223): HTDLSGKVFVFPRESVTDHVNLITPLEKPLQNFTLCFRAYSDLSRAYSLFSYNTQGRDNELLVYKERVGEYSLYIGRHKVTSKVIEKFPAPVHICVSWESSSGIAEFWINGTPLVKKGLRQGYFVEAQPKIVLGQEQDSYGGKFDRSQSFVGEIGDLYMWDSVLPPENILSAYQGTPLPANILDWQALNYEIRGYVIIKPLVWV
T1 sequence (P12314 16-292): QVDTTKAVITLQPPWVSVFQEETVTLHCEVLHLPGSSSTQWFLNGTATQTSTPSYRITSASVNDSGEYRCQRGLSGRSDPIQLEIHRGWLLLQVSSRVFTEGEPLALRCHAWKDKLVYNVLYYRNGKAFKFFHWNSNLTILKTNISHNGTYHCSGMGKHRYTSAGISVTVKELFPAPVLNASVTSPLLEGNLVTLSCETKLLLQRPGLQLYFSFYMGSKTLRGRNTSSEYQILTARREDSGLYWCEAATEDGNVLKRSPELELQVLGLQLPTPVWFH

B1
Kd [1]: ~1.45 µM

B2: soluble recombinant FcγRIIIB (sFcγRIIIB) (receptor, UniProt O75015 17-200, looked up)
chain: GMRTEDLPKAVVFLEPQWYSVLEKDSVTLKCQGAYSPEDNSTQWFHNENLISSQASSYFIDAATVNDSGEYRCQTNLSTLSDPVQLEVHIGWLLLQAPRWVFKEEDPIHLRCHSWKNTALHKVTYLQNGKDRKYFHHNSDFHIPKATLKDSGSYFCRGLVGSKNVSSETVNITITQGLAVSTIS
notes: extracellular domain; not shown: C-terminal poly-histidine tail of 6-10 histidines
Kd [2]: ~15.6 µM

B3: soluble recombinant FcγRIIA (H131 variant) (receptor)
chain: QAAPPKAVLKLEPPWINVLQEDSVTLTCQGARSPESDSIQWFHNGNLIPTHTQPSYRFKANNNDSGEYTCQTGQTSLSDPVHLTVLSEWLVLQTPHLEFQEGETIMLRCHSWKDKPLVKVTFFQNGKSQKFSHLDPTFSIPQANHSHSGDYHCTGNIGYTLFSSKPVTITVQVPSMGSSSPMG
notes: also called FcγR2A; not shown: C-terminal poly-histidine tail of 6-10 histidines
Kd [3]: 0.00017 µM

B4: soluble recombinant FcγRIIB (receptor, UniProt P31994 43-217, looked up)
chain: TPAAPPKAVLKLEPQWINVLQEDSVTLTCRGTHSPESDSIQWFHNGNLIPTHTQPSYRFKANNNDSGEYTCQTGQTSLSDPVHLTVLSEWLVLQTPHLEFQEGETIVLRCHSWKDKPLVKVTFFQNGKSKKFSRSDPNFSIPQANHSHSGDYHCTGNIGYTLYSSKPVTITVQAP
notes: as for B2
binding result [4]: no binding
